In data set [1] the test system is T1, Cbz-Ala-Ala-AAsn-cis-EP-COOEt.
T1 sequence: AAN

Data set [2] concerns T2, Cbz-Asp-Glu-Val-AAsp-(2R, 3R)-EP-COOEt.
T2 sequence: DEVD

Data set [3] has as its system T3, PhPr-Val-Ala-AAsp-trans-EP-CH2CH2Ph.
T3 sequence: VAD

Data set [4] concerns T4, Cbz-Ala-Ala-AAsn-trans-EP-COOEt.
T4 sequence: AAN

Data set [5] concerns T5, Cbz-Ala-Ala-AAsn-(2S, 3S)-EP-COOEt.
T5 sequence: AAN

The subject of data set [6] is T6, Cbz-Asp-Glu-Val-AAsp-(2S, 3S)-EP-COOEt.
T6 sequence: DEVD

The subject of data set [7] is T7, Cbz-Leu-Glu-Thr-AAsp-(2R, 3R)-EP-COOEt.
T7 sequence: LETD

Data set [8] has as its system T8, Cbz-Ala-Ala-AAsn-(2R, 3R)-EP-COOEt.
T8 sequence: AAN

Data set [9] deals with T9, PhPr-Val-Ala-AAsp-trans-EP-COOCH2Ph.
T9 sequence: VAD

Data set [10] concerns T10, Cbz-Leu-Glu-Thr-AAsp-(2S, 3S)-EP-COOEt.
T10 sequence: LETD

Data set [11] relates to T11, Ac-Leu-AHph-trans-EP-COOEt.
T11 sequence: LX

Data set [12] deals with T12, PhPr-Val-Ala-AAsp-(2S, 3S)-EP-COOCH2Ph.
T12 sequence: VAD

In data set [13] the test system is T13, Cbz-Leu-AHph-(2R, 3R)-EP-COOEt.
T13 sequence: LX

For data set [14], the system named is T14, PhPr-Val-Ala-AAsp-(2R, 3R)-EP-COOCH2Ph.
T14 sequence: VAD

Data set [15] has as its system T15, Cbz-Leu-ALeu-trans-EP-COOEt.
T15 sequence: LL

For data set [16], the system named is T16, Cbz-Leu-Phe-AGln-(2S, 3S)-EP-COOEt.
T16 sequence: LFQ

Data set [17] deals with T17, Cbz-Ile-Glu-Thr-AAsp-(2S, 3S)-EP-COOEt.
T17 sequence: IETD

The test system of data set [18] is T18, Ac-Leu-ALeu-trans-EP-COOEt.
T18 sequence: LL

The subject of data set [19] is T19, Cbz-Ala-Ala-NHN(CH2COOEt)-trans-EP-COOEt.
T19 sequence: AAD

Data set [20] concerns T20, Cbz-Phe-APhe-trans-EP-CH2CH2Ph.
T20 sequence: FF

The test system of data set [21] is T21, Cbz-Leu-AHph-(2S, 3S)-EP-COOEt.
T21 sequence: LX

Data set [22] relates to T22, Cbz-Leu-Leu-ALeu-(2R, 3R)-EP-COOEt.
T22 sequence: LLL

Another data set concerns T23, Cbz-APhe-trans-EP-COOEt.
T23 sequence: F

In data set [23] the test system is T24, Cbz-Leu-Leu-ALeu-(2S, 3S)-EP-COOH.
T24 sequence: LLL

A further data set deals with T25, Ac-AHph-trans-EP-COOEt.
T25 sequence: X

For a further data set, the system named is T26, Cbz-ALeu-trans-EP-COOEt.
T26 sequence: L

Data set [24] has as its system T27, Boc-Nle-AHph-trans-EP-CH2CH2Ph.
T27 sequence: XX

For data set [25], the system named is T28, Cbz-Leu-AHph-cis-EP-COOEt.
T28 sequence: LX

Data set [26] has as its system T29, Cbz-Phe-ALeu-trans-EP-COOEt.
T29 sequence: FL

The next data set relates to T30, Cbz-AHph-trans-EP-COOEt.
T30 sequence: X

Data set [27] concerns T31, Cbz-Leu-ALeu-cis-EP-COOEt.
T31 sequence: LL

Data set [28] relates to T32, Boc-Nle-AHph-trans-EP-COOEt.
T32 sequence: XX

Data set [29] deals with T33, Boc-Np2-ALeu-trans-EP-COOEt.
T33 sequence: XL

Data set [30] relates to T34, Cbz-Phe-ALeu-trans-EP-CH2CH2Ph.
T34 sequence: FL

Data set [31] has as its system T35, Cbz-Leu-ALeu-(2R, 3R)-EP-COOEt.
T35 sequence: LL

The test system of data set [32] is T36, Cbz-Leu-AAbu-trans-EP-COOH.
T36 sequence: LX

Data set [33] relates to T37, Cbz-Leu-Phe-AGln-trans-EP-COOEt.
T37 sequence: LFQ

For data set [34], the system named is T38, Boc-Nva-AHph-trans-EP-COOEt.
T38 sequence: XX

The subject of data set [35] is T39, Cbz-Leu-Phe-AGln-(2R, 3R)-EP-COOEt.
T39 sequence: LFQ

In data set [36] the test system is T40, Cbz-Leu-Leu-ALeu-trans-EP-COOEt.
T40 sequence: LLL

In data set [37] the test system is T41, Cbz-Leu-Leu-ALeu-(2S, 3S)-EP-COOEt.
T41 sequence: LLL

Data set [38] deals with T42, Cbz-Leu-ALeu-(2S, 3S)-EP-COOEt.
T42 sequence: LL

Data set [39] deals with T43, Boc-Abu-AHph-trans-EP-CH2CH2Ph.
T43 sequence: XX

The subject of data set [40] is T44, Cbz-Ala-Ala-AAsn-trans-EP-COOCH2Ph.
T44 sequence: AAN

Data set [41] has as its system T45, Suc-Np2-ALeu-trans-EP-COOEt.
T45 sequence: XL

Data set [42] relates to T46, Cbz-Leu-AAbu-trans-EP-COOEt.
T46 sequence: LX

Data set [43] deals with T47, Cbz-Leu-AHph-(2S, 3S)-EP-COOH.
T47 sequence: LX

The test system of data set [44] is T48, Nva-AHph-trans-EP-COOEt.TFA.
T48 sequence: XX

The subject of data set [45] is T49, Nle-AHph-trans-EP-COOEt.TFA.
T49 sequence: XX

The test system of data set [46] is T50, Nva-AHph-trans-EP-CH2CH2Ph.TFA.
T50 sequence: XX

Regarding chymotrypsin, the “kobs/[I]” value in data set [1], in data set [2], in data set [3], in data set [4], in data set [5] and in data set [6] was “NI” in each case. Moreover, the “kobs/[I]” value in [7], in data set [8], in [9] and in [10] was “NI” throughout.
As for cathepsin B, the kobs/[I] in [11] was 0.59 M⁻¹ s⁻¹; in data set [12], 0.81 M⁻¹ s⁻¹; in data set [13], “NI”; in data set [14], “NI”; in data set [15], 23.3 M⁻¹ s⁻¹; in [16], 4.73 M⁻¹ s⁻¹. Besides, the “kobs/[I]” value is “NI” in data set [17]; “NI” in [1]; 8 M⁻¹ s⁻¹ in [18]; 2.53 M⁻¹ s⁻¹ in data set [19]; “NI” in data set [20]; 0.67 M⁻¹ s⁻¹ in data set [21]. For the same substance, the “kobs/[I]” value was “NI” in data set [22]; 1.8 M⁻¹ s⁻¹ with Cbz-APhe-trans-EP-COOEt; 7.02 M⁻¹ s⁻¹ in data set [23]; 40.6 M⁻¹ s⁻¹ in the data set on Ac-AHph-trans-EP-COOEt; 4.43 M⁻¹ s⁻¹ in the data set on Cbz-ALeu-trans-EP-COOEt; “NI” in [24]. The “kobs/[I]” value in [25] was “NI”; in [26], 3.61 M⁻¹ s⁻¹; in data set [2], “NI”; in the data set with Cbz-AHph-trans-EP-COOEt, 8.91 M⁻¹ s⁻¹; in data set [3], “NI”; in [27], 6.27 M⁻¹ s⁻¹. Also, the kobs/[I] in data set [28] is 1.3 M⁻¹ s⁻¹; in [29] it was 0.39 M⁻¹ s⁻¹; in [4], 1.27 M⁻¹ s⁻¹; in data set [30], “NI”; in [5] it was 6 M⁻¹ s⁻¹; in [6] it was “NI”. The “kobs/[I]” value in data set [7] was “NI”; in data set [31] it was “NI”; in [8], “NI”; in data set [32] it was “NI”; in data set [9], less than 10 M⁻¹ s⁻¹; in data set [33], 1.3 M⁻¹ s⁻¹. The kobs/[I] in data set [34] was 2.7 M⁻¹ s⁻¹; in data set [10], “NI”; in [35] it was “NI”; in [36], “NI”; in [37], 0.98 M⁻¹ s⁻¹; in data set [38], 1.8 M⁻¹ s⁻¹. The results for the “kobs/[I]” value in [39], in data set [40] and in data set [41] were “NI”, 1.09 M⁻¹ s⁻¹ and 0.8 M⁻¹ s⁻¹, respectively.
For the substance calpain, the kobs/[I] in [11] is 0.84 M⁻¹ s⁻¹; in data set [13] it was 2.12 M⁻¹ s⁻¹; in [15], 3.09 M⁻¹ s⁻¹; in data set [18], 1.48 M⁻¹ s⁻¹; in data set [21], 2.28 M⁻¹ s⁻¹; in [22] it was “NI”. The kobs/[I] stood at 0.82 M⁻¹ s⁻¹ in [23]; 1.29 M⁻¹ s⁻¹ in the data set with Ac-AHph-trans-EP-COOEt; 1.75 M⁻¹ s⁻¹ in the data set with Cbz-ALeu-trans-EP-COOEt; 1.98 M⁻¹ s⁻¹ in [42]; 1.09 M⁻¹ s⁻¹ in [25]; 2.44 M⁻¹ s⁻¹ in the data set with Cbz-AHph-trans-EP-COOEt. Moreover, the kobs/[I] is 1.88 M⁻¹ s⁻¹ in data set [27]; 2.12 M⁻¹ s⁻¹ in [43]; 1.45 M⁻¹ s⁻¹ in data set [31]; 0.57 M⁻¹ s⁻¹ in [32]; 2.65 M⁻¹ s⁻¹ in data set [36]; 2.48 M⁻¹ s⁻¹ in [37]. The substance further had a kobs/[I] in [38] of 8.58 M⁻¹ s⁻¹.
dipeptidyl peptidase I: the kobs/[I] in data set [44] is 3.2 M⁻¹ s⁻¹; in data set [28], 0.7 M⁻¹ s⁻¹; in data set [45], 8.2 M⁻¹ s⁻¹; in [34], 0.5 M⁻¹ s⁻¹; in data set [46], 0.1 M⁻¹ s⁻¹.

The values above are taken from patent US20040048327.
